# Patent publication US20250109190A1 (BYOMASS, published 2025)
# T1: Activin B (UniProt P09529 293-407)
# T1 sequence (looked up): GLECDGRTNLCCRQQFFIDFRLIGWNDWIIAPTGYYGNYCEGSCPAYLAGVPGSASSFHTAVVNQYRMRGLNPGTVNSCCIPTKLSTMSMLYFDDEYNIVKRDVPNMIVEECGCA
# T2: BMP9 (UniProt Q9UK05 320-429)
# T2 sequence (looked up): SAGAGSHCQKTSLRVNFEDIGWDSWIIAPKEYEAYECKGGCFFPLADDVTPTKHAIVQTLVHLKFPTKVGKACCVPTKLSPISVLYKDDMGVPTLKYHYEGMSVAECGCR
# T3: BMP10 (UniProt O95393 317-424)
# T3 sequence (looked up): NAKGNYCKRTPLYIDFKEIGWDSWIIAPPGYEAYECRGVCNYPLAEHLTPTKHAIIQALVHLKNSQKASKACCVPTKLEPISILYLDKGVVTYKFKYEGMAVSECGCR
# T4: GDF15 Fc (UniProt Q99988 197-308, limits assumed)
# T4 construct: species not given; not shown: Fc part of the fusion
# T4 sequence (looked up): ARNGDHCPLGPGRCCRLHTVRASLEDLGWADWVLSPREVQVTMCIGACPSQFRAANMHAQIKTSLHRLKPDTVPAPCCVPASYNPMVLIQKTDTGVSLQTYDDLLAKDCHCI
# T5: human GDNF (human, UniProt P39905 78-211, limits assumed)
# T5 sequence (looked up): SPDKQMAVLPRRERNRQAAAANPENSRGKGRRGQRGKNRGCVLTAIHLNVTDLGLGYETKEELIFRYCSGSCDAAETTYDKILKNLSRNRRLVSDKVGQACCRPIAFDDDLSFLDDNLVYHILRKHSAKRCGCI
# T6: human GDF10 (human, UniProt P55107 369-478)
# T6 sequence (looked up): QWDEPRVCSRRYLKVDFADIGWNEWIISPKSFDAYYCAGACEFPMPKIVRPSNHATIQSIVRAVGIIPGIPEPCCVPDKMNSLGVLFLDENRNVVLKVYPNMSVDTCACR
# Tests used:
# Assay in all cases: BLI Octet; IgG, avid
# Activin B = target: T1, Activin B
# BMP9 = target: T2, BMP9
# BMP10 = target: T3, BMP10
# GDF15 Fc = target: T4, GDF15 Fc
# human GDNF = target: T5, human GDNF
# human GDF8 = human GDF8 (human, UniProt O14793 267-375)
# human GDF10 = target: T6, human GDF10
# human GDF11 = human GDF11 (human, UniProt O95390 299-407)
# Chain of human GDF11 (O95390 299-407 limits assumed): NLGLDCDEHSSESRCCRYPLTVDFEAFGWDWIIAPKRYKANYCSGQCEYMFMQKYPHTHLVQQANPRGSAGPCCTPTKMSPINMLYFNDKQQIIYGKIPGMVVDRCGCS
Binder,binding result (Activin B),binding result (BMP9),binding result (BMP10),binding result (GDF15 Fc),binding result (human GDNF),binding result (human GDF8),binding result (human GDF10),binding result (human GDF11)
"Antibody G (Clone G), IgG (antibody, V domains shown, IgG) VH: QVQLVQSGAEVKKPGASVKVSCKASGYTFTSYYIHWVRQAPGQGLEWMGAIYAYSGDTNYAQKLQGRVTMTTDTSTSTAYMELRSLRSDDTAVYYCARARDIAAAGLGAFDYWGQGTLVTVSS VL: EIVLTQSPGTLSLSPGERATLSCRASQSVRSSYLAWYQQKPGQAPRLLIYGASSRATGIPDRFSGSGSGTDFTLTISRLEPEDFAVYYCQQYSNYPRTFGGGTKVEIKR",no binding (tested: 100 nM),no binding (tested: 100 nM),no binding (tested: 100 nM),no binding (tested: 100 nM),no binding (tested: 100 nM),no binding (tested: 100 nM),no binding (tested: 100 nM),no binding (tested: 100 nM)
"Antibody Q (Clone Q), IgG (antibody, V domains shown, IgG) VH: QVQLVQSGAEVKKPGSSVKVSCKASGGSFSPYTWSWVRQAPGQGLEWMGGIIPISGTANTAQKFQGRVTITADESTSTAYMELSSLRSEDTAVYYCARGGPLSGWRASYYYWGQGTLVTVSS VL: not shown",no binding (tested: 100 nM),no binding (tested: 100 nM),no binding (tested: 100 nM),no binding (tested: 100 nM),no binding (tested: 100 nM),no binding (tested: 100 nM),no binding (tested: 100 nM),no binding (tested: 100 nM)

# The remaining lines, values ahead:
binding result (Activin B),binding result (BMP9),binding result (BMP10),binding result (GDF15 Fc),binding result (human GDNF),binding result (human GDF8),binding result (human GDF10),binding result (human GDF11),Binder
no binding (tested: 100 nM),no binding (tested: 100 nM),no binding (tested: 100 nM),no binding (tested: 100 nM),no binding (tested: 100 nM),no binding (tested: 100 nM),no binding (tested: 100 nM),no binding (tested: 100 nM),"Antibody I (Clone I), IgG (antibody, V domains shown, IgG) VH: QVQLVQSGAEVKKPGSSVKVSCKASGGTFSNYAISWVRQAPGQGLEWMGYIIPFFGTANYAQKFQGRVTITADESTSTAYMELSSLRSEDTAVYYCARGGSGYSTSWGSSLYWGQGTLVTVSS VL: EIVLTQSPGTLSLSPGERATLSCRASQSVSSSYLAWYQQKPGQAPRLLIYGASYRATGIPDRFSGSGSGTDFTLTISRLEPEDFAVYYCLQSGVFPYTFGGGTKVEIKR"
no binding (tested: 100 nM),no binding (tested: 100 nM),no binding (tested: 100 nM),no binding (tested: 100 nM),no binding (tested: 100 nM),no binding (tested: 100 nM),no binding (tested: 100 nM),no binding (tested: 100 nM),"Antibody R (Clone R), IgG (antibody, V domains shown, IgG) VH: QVQLVQSGAEVKKPGSSVKVSCKASGGSFSPYTISWVRQAPGQGLEWMGGIILTSGTANYAQKFQGRVTITADESTSTAYMELSSLRSEDTAVYYCARGGPLSGWRASYYYWGQGTLVTVSS VL: not shown"
no binding (tested: 100 nM),no binding (tested: 100 nM),no binding (tested: 100 nM),no binding (tested: 100 nM),no binding (tested: 100 nM),no binding (tested: 100 nM),no binding (tested: 100 nM),no binding (tested: 100 nM),"Antibody K (Clone K), IgG (antibody, V domains shown, IgG) VH: QVQLVQSGAEVKKPGSSVKVSCKASGGTSSSYAISWVRQAPGQGLEWMGYIIPAFGTANYAQKFQGRVTITADESTSTAYMELSSLRSEDTAVYYCARPVRTYPLGKYFYHWGQGTLVTVSS VL: EIVLTQSPATLSLSPGERATLSCRASQSVSSYLAWYQQKPGQAPRLLIYDASNRATGIPARFSGSGSGTDFTLTISSLEPEDFAVYYCQQDSIFPPYTFGGGTKVEIKR"
no binding (tested: 100 nM),no binding (tested: 100 nM),no binding (tested: 100 nM),no binding (tested: 100 nM),no binding (tested: 100 nM),no binding (tested: 100 nM),no binding (tested: 100 nM),no binding (tested: 100 nM),"Antibody O (Clone O), IgG (antibody, V domains shown, IgG) VH: QVQLVQSGAEVKKPGSSVKVSCKASGGTFSNYDINWVRQAPGQGLEWMGGIIPVFGTAAYAQKFQGRVTITADESTSTAYMELSSLRSEDTAVYYCAREARDGYRYAFQHWGQGTLVTVSS VL: not shown"
